These results are taken from PMC10388275 (Haematologica, 2023).

For this experiment, the target named is rmSiglec1-mFc (mouse, UniProt Q62230 20-1639). The experiment is described as follows: SPR. For orientation: In SPR one partner is held on a chip, and binding of the other changes the refractive index at the surface.
Sequence of rmSiglec1-mFc (Q62230 20-1639): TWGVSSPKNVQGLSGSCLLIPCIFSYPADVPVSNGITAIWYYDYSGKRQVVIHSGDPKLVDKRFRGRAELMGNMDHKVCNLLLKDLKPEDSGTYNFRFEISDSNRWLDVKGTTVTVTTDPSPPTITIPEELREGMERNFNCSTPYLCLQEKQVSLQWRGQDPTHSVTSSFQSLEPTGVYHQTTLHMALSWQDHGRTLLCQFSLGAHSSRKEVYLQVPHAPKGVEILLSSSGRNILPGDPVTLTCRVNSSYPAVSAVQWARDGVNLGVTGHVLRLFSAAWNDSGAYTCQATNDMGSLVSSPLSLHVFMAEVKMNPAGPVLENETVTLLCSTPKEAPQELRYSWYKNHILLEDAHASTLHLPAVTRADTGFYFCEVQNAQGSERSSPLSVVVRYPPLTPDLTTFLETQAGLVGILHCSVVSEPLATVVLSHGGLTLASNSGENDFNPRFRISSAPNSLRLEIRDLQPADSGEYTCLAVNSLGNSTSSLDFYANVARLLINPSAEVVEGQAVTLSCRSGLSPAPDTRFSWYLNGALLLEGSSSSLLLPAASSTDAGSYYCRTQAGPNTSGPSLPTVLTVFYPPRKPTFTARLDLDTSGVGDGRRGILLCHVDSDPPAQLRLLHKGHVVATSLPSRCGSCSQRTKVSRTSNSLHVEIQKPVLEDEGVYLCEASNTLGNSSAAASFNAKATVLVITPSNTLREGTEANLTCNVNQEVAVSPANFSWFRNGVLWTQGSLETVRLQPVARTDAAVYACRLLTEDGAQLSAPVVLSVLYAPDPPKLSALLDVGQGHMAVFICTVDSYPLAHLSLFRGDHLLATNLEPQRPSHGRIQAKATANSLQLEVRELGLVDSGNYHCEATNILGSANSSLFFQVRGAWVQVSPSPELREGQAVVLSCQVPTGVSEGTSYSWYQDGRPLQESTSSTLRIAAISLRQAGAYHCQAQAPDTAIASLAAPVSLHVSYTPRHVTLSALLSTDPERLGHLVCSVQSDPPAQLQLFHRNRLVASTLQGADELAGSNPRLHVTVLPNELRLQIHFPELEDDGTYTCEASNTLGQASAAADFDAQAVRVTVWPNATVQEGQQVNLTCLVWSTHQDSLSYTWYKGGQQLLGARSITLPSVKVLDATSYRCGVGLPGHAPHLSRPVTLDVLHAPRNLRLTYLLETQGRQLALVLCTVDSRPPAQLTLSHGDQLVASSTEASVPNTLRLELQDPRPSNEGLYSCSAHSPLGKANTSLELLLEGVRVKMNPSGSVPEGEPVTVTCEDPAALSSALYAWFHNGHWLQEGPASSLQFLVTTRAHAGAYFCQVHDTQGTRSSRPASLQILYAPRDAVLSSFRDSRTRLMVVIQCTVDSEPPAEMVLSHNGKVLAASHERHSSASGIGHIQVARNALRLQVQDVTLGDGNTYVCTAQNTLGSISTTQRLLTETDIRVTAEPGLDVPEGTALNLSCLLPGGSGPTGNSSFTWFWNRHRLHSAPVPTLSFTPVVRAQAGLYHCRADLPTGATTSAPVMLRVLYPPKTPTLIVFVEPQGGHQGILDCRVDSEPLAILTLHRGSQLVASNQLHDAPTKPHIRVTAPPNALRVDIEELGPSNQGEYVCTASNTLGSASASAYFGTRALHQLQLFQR

B1: rmCD43-hFc (Fc fusion, mouse, UniProt P15702 20-248, looked up)
chain: DSLQRTTMLPSTPHITAPSTSEAQNASPSVSVGSGTVDSKETISPWGQTTIPVSLTPLETTELSSLETSAGASMSTPVPEPTASQEVSSKTSALLPEPSNVASDPPVTAANPVTDGPAANPVTDGTAASTSISKGTSAPPTTVTTSSNETSGPSVATTVSSKTSGPPVTTATGSLGPSSEMHGLPATTATSSVESSSVARGTSVSSRKTSTTSTQDPITTRSPSQESSG
The molecule B1 returned a Kd of 107 nM.

For orientation: Kd means a measure of binding affinity in units of concentration. Read a high Kd as weaker binding.
